This is an account of results in article PMC12245071.

The target of this test is Bacteriophage T4 capsid, major capsid protein gp23* (bacteriophage T4). The test can be described thus: co-sedimentation.

On to “M2e-Hoc fusion (influenza M2e peptide on the tip of the T4 Hoc fiber)”, for which the copies per capsid (copies per capsid) came to 90.
Consider “Soc-SpyCatcher displayed on the T4 phage capsid (T4-SpyCatcher phage) (designed binder)”, for which the copies per capsid (copies per capsid) was 205.
